# Measurements taken from the supplement of paper PMC9732359.
# ± gives the uncertainty stated by the source.
# Test: protein stability index of a GFP-peptide fusion (yeast GPS) (PSI 1-4); higher = more stable; sorted into four equal gates, so the index is relative within each strain
# Outline: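 For each peptide, the protein stability index sums the read frequency in every gate after multiplying it by the gate number. Read frequencies came from plasmids that were PCR-amplified from each gate and Illumina-sequenced, with reads assigned to strains by barcodes. The gates were four equal bins of GFP/Cherry fluorescence ratio applied to mid-log yeast in leucine-free medium carrying a pooled library of tiled 17-residue yeast protein peptides fused downstream of GFP on a Cherry-expressing plasmid.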
Sequence,protein stability index (doa10∆),protein stability index (pdr5∆),protein stability index (san1∆),protein stability index (ubr1∆)
LDRELLKPSMSVALHRH [RPT3],2.98 ± 0.082,2.71 ± 0.1,3.07 ± 0.071,2.7 ± 0.16
IMRILKSNGLAPEIPED [RPS13],2.14 ± 0.09,3.09 ± 0.15,1.9 ± 0.22,2.91 ± 0.057
VGVDQLSIELEGGKNQA [YJL039C/NUP192],3.08 ± 0.27,3.23 ± 0.16,3.06 ± 0.076,2.46 ± 0.14
RHTTGTGRMRYLKHVSR [RPL37A],3.14 ± 0.11,3.26 ± 0.081,3.55 ± 0.081,3.1 ± 0.11
SEKGFSKEQIHGSIIIL [YCS4],2.71 ± 0.12,2.37 ± 0.077,2.76 ± 0.076,2.73 ± 0.087
YGLGLIYAGFGRDTTDY [RPN2],3.37 ± 0.12,3.03 ± 0.1,2.95 ± 0.084,3.28 ± 0.088
PKFISEALAFTSLVANE [YDL116W/NUP84],1.23 ± 0.067,1.38 ± 0.078,1.31 ± 0.15,1.11 ± 0.17
AYILAAQKTSFEYEGVQ [RPN1],2.39 ± 0.072,2.35 ± 0.079,2.2 ± 0.15,2.23 ± 0.08
EDGPRPFKVFLDIGLQR [RPL5],3 ± 0.068,3.17 ± 0.058,3.06 ± 0.052,3.04 ± 0.033
KYLSDIMELPGVYSDDE [SRP68],3.14 ± 0.25,3.08 ± 0.17,3.59 ± 0.17,3.36 ± 0.11
VILKQILQILDQDELVQ [SWP82],2.54 ± 0.051,2.52 ± 0.082,2.57 ± 0.063,2.5 ± 0.06
RGAWGKPHGLAARVDIG [RPL10],2.59 ± 0.064,1.99 ± 0.04,1.68 ± 0.08,2.35 ± 0.037
ETHPDNSNKQAVAILAD [BRR2],2.78 ± 0.053,2.93 ± 0.049,2.81 ± 0.045,2.98 ± 0.038
SLKDLSSLRNQELLNAE [RPN3],,2.15 ± 0.22,3.34 ± 0.14,
IDEIAYLFHNDRIIHTW [ECM29],1.4 ± 0.049,1.43 ± 0.054,1.3 ± 0.081,1.66 ± 0.043
NLTIHFGGEKGKRIREN [FAS1],3.39 ± 0.1,3.01 ± 0.18,3.05 ± 0.092,3.31 ± 0.075
KGVTEKDAVDYSKIPNI [RRP6],3.24 ± 0.12,3.18 ± 0.092,3.25 ± 0.08,3.3 ± 0.069
FDKDLERDTFSDFTFPE [DIS3],2.11 ± 0.15,1.88 ± 0.13,1.24 ± 0.17,1.32 ± 0.15
KKVNGTSYKKWSFDLPE [PRP8],2.2 ± 0.07,2.36 ± 0.084,2.25 ± 0.1,3.35 ± 0.12
ATAIGKGSVAAKTFLEK [PRE8],2.13 ± 0.2,1.28 ± 0.17,,
AHVNKVTEETTKQIQSV [SIR4],2.81 ± 0.095,2.89 ± 0.078,2.98 ± 0.041,2.53 ± 0.061
DHQHILRKLKKMNNKPE [RPC53],1.87 ± 0.053,1.7 ± 0.06,1.78 ± 0.1,1.51 ± 0.044
MSDSIISFAAFILADAG [RPP1B],1.62 ± 0.069,1.35 ± 0.049,1.31 ± 0.2,1.26 ± 0.057
SVDDVLSALDHIGHSAL [DPB4],3.26 ± 0.2,3.53 ± 0.18,3.27 ± 0.083,3.46 ± 0.069
KTMKTFVIHIQEKNFQT [RPB5],2.05 ± 0.091,1.85 ± 0.072,1.88 ± 0.14,2.56 ± 0.088
TRVTRLSLQRANVEILA [CSL4],1.64 ± 0.042,1.78 ± 0.043,1.78 ± 0.081,2.03 ± 0.033
GWYHSGPKLRASDLKIN [RPN8],1.57 ± 0.036,1.95 ± 0.035,1.59 ± 0.058,2.06 ± 0.035

Sequence,protein stability index (doa10∆),protein stability index (pdr5∆),protein stability index (san1∆),protein stability index (ubr1∆)
EPLAPGNDNLIKAPTVA [YLR335W/NUP2],2.57 ± 0.067,2.77 ± 0.064,2.53 ± 0.053,2.88 ± 0.059
VSGNNASDEPSRKKNRR [SSN3],2.67 ± 0.1,3.01 ± 0.11,2.78 ± 0.14,2.91 ± 0.096
KVISEILTKEVQGSTLA [RPS1A],2.29 ± 0.026,2.336 ± 0.023,2.29 ± 0.03,2.194 ± 0.018
KNPLFSYVEPVLVASAK [RPL31A],2.95 ± 0.075,2.57 ± 0.064,2.49 ± 0.066,2.76 ± 0.05
HEKIEDEDEDNDLDEDD [RPN4],3.56 ± 0.2,3.44 ± 0.09,3.55 ± 0.086,3.45 ± 0.11
QASDPSKKKKNIKKKDT [RPC53],3.26 ± 0.17,3.5 ± 0.13,3.2 ± 0.088,3.3 ± 0.21
IHLNELLTNDESAFENL [SNF12],2.73 ± 0.057,2.91 ± 0.052,2.88 ± 0.067,3.03 ± 0.053
VIVPLSTLSNWSSEFAK [SNF2],2.65 ± 0.049,2.35 ± 0.06,2.52 ± 0.051,2.6 ± 0.038
TSDLLGSHLSETEFPPF [ECM29],2.94 ± 0.049,3.17 ± 0.062,3.17 ± 0.042,2.9 ± 0.058
GIGGDHAKFSPVSTASY [RPC40],2.59 ± 0.079,2.9 ± 0.12,2.28 ± 0.098,2.9 ± 0.062
GEVLGITRFGLSKMRDS [RPO31],3.56 ± 0.12,3.26 ± 0.11,3.19 ± 0.075,3.46 ± 0.1
ITGGIIEETSAAIKDLD [RRP43],3.13 ± 0.2,,,
KSLAMEHKSQVVLYNYY [CSN12],1.19 ± 0.053,1.34 ± 0.071,1.32 ± 0.11,1.55 ± 0.035
RFNAKVSMVKRAIDSLI [CDC53],1.86 ± 0.071,2.12 ± 0.074,2.17 ± 0.12,2 ± 0.042
LTSVTNDICSVENYETS [SIR4],2.18 ± 0.052,2.35 ± 0.057,1.88 ± 0.062,1.84 ± 0.059
AAGKRISHIEKRIESLQ [SMC1],3.09 ± 0.099,3.07 ± 0.096,2.93 ± 0.073,3.08 ± 0.095
ASFFFMVMFMHMAKGLY [COB],1.86 ± 0.046,1.58 ± 0.038,1.67 ± 0.08,1.4 ± 0.037
LTDLDSPSEFVDVAIPC [RPS0A],2.77 ± 0.091,2.46 ± 0.073,2.31 ± 0.077,2.56 ± 0.063
DDEDEDDSDNVMSSDDE [PRE10],3.17 ± 0.094,3.46 ± 0.12,3.44 ± 0.15,3.12 ± 0.17
QDENIGLSMLAKLKELA [RPC31],3.14 ± 0.071,3.46 ± 0.074,3.05 ± 0.092,3.16 ± 0.053
VPQGKIVALTNAKDKER [SMC3],2.77 ± 0.1,2.84 ± 0.14,2.83 ± 0.15,3.02 ± 0.092
PTFSTHAQLLLSDRITG [PRP8],1.7 ± 0.033,1.87 ± 0.036,1.57 ± 0.051,1.95 ± 0.031
FKRDLLREKEDKKNSSD [YJL039C/NUP192],3.38 ± 0.13,2.92 ± 0.18,3.23 ± 0.064,3 ± 0.14
PVGSYEREQCRAGGAAA [PRE7],3.02 ± 0.24,2.98 ± 0.18,3.32 ± 0.17,2.78 ± 0.097
NNAHSSDLGTVVFDSNE [YMR153W/NUP53],2.56 ± 0.16,2.46 ± 0.093,2.24 ± 0.1,1.85 ± 0.082
RREFKQYSLERNSPFWW [PRP8],3.06 ± 0.12,3.64 ± 0.12,3.1 ± 0.12,3.19 ± 0.14
AASWYGSFNEMKRNCGQ [RMP1],2.92 ± 0.051,3.3 ± 0.054,3.06 ± 0.052,3.21 ± 0.045
